The source of these data is PMC5648754, “CryoEM structure of Saccharomyces cerevisiae U1 snRNP offers insight into alternative splicing” (Nature Communications, 2017).

B2: yeast Nam8 (natural protein, S. cerevisiae, UniProt Q00539 1-523, looked up)
chain: MSYKQTTYYPSRGNLVRNDSSPYTNTISSETNNSSTSVLSLQGASNVSLGTTGNQLYMGDLDPTWDKNTVRQIWASLGEANINVRMMWNNTLNNGSRSSMGPKNNQGYCFVDFPSSTHAANALLKNGMLIPNFPNKKLKLNWATSSYSNSNNSLNNVKSGNNCSIFVGDLAPNVTESQLFELFINRYASTSHAKIVHDQVTGMSKGYGFVKFTNSDEQQLALSEMQGVFLNGRAIKVGPTSGQQQHVSGNNDYNRSSSSLNNENVDSRFLSKGQSFLSNGNNNMGFKRNHMSQFIYPVQQQPSLNHFTDPNNTTVFIGGLSSLVTEDELRAYFQPFGTIVYVKIPVGKCCGFVQYVDRLSAEAAIAGMQGFPIANSRVRLSWGRSAKQTALLQQAMLSNSLQVQQQQPGLQQPNYGYIPSSTCEAPVLPDNNVSSTMLPGCQILNYSNPYANANGLGSNNFSFYSNNNATNTQATSLLADTSSMDLSGTGGQQVIMQGSEAVVNSTNAMLNRLEQGSNGFMFA
notes: Nam8 of S. cerevisiae, 523 residues; inter-RRM linker 289-302 and RRM3 303-383 and C-terminal tail modelled; source: endogenous, S. cerevisiae; co-purified in U1 snRNP through the TAP tag on U1A
B5: yeast Prp42 (natural protein, S. cerevisiae, UniProt Q03776 1-544, looked up)
chain: MDKYTALIHDENFSTLTLNVSRYPKSLAYWEKLLNYIVKASAPICKSTEPQLLKLIRCTYSSMLNEFPYLENYYIDFALLEYKLGNVSMSHKIFQRGLQAFNQRSLLLWTSYLKFCNNVISHQKQLFKKYETAEEYVGLHFFSGEFWDLYLEQISSRCTSSKKYWNVLRKILEIPLHSFSKFYALWLQRIDDIMDLKQLSQLTSKDELLKKLKIDINYSGRKGPYLQDAKKKLKKITKEMYMVVQYQVLEIYSIFESKIYINYYTSPETLVSSDEIETWIKYLDYTITLQTDSLTHLNFQRALLPLAHYDLVWIKYSKWLINSKNDLLGAKNVLLMGLKFSLKKTEIIKLLYSVICKLNEYVLLRNLLEKIESSYSDNVENVDDFEIFWDYLQFKTFCQNSLYSSRYSDSQSNGLLNKELFDKVWKRLSCKEKKSGQEILLNNLVQFYSKDTVEFVEKNIFQKIIEFGWEYYLQNGMFWNCYCRLIYFDTSRSYLDKRQYIVRKIWPQIDKKFAQSVLPSLTEFCESYFPEEMDTLEEMFTEEP
notes: Prp42 of S. cerevisiae, 544 residues; residues 2-540 modelled; source: endogenous, S. cerevisiae; co-purified in U1 snRNP through the TAP tag on U1A

Holding throughout (settings): both partners purified
For the assay “yeast Prp42”, the target named is B5. Kind of assay: cryo-EM structure; natively purified yeast U1 snRNP, 3.6 Å overall resolution.
The next assay concerns the target T1, yeast Prp39 (S. cerevisiae, UniProt P39682 1-629).
T1 construct: Prp39 of S. cerevisiae, 629 residues; C-terminal TPR domain 326-552 and C-terminal region 561-627 built, 43-285 docked as homology model; source: endogenous, S. cerevisiae; co-purified in U1 snRNP through the TAP tag on U1A
T1 sequence (looked up): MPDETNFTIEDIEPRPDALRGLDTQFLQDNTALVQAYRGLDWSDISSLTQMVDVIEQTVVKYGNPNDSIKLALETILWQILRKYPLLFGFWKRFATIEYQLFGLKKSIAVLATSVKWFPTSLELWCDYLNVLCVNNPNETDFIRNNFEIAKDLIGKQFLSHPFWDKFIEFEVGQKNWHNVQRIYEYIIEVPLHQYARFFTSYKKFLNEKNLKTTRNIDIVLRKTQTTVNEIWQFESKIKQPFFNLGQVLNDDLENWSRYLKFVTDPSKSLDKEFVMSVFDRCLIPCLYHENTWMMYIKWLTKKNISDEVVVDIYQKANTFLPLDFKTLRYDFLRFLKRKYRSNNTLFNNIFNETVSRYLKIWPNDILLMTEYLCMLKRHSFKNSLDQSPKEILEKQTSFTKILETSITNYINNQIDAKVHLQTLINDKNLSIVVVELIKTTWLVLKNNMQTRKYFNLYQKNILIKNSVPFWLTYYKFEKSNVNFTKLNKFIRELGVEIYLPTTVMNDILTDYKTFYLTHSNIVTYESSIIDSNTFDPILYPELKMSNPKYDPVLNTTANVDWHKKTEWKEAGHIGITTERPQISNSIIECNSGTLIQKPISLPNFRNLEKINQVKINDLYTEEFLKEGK
The description is as above.

The next assay addresses T2, yeast Snu71 (S. cerevisiae, UniProt P53207 1-620).
T2 construct: Snu71 of S. cerevisiae U1 snRNP; not modelled in the structure; source: endogenous, S. cerevisiae; co-purified in U1 snRNP through the TAP tag on U1A
T2 sequence (looked up): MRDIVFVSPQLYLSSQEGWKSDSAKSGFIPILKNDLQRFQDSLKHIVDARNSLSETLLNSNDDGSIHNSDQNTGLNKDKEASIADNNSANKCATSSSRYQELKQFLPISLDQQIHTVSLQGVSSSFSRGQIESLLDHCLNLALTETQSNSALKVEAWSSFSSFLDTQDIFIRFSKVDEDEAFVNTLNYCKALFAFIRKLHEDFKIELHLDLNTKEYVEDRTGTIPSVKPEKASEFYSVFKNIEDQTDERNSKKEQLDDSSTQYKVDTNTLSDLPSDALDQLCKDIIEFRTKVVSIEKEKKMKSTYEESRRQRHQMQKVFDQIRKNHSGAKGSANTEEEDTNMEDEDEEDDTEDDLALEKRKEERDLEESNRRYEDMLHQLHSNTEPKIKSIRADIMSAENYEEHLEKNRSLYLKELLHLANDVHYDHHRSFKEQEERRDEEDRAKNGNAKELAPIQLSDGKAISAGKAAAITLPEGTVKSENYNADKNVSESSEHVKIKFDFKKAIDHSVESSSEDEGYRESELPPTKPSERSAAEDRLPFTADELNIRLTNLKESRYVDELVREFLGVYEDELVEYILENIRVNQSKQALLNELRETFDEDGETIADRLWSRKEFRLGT
Kind of assay: cross-linking; purified yeast U1 snRNP cross-linked with 100 uM BS3, 30 min, room temperature; trypsin digest, mass spectrometry.

The assay “yeast Nam8” addresses B2. Kind of assay: cryo-EM structure; natively purified yeast U1 snRNP, 3.6 Å overall resolution.
Another assay concerns the target T3, yeast U1-70K (S. cerevisiae, UniProt Q00916 1-300).
T3 construct: U1-70K of S. cerevisiae U1 snRNP; residues 3-91 built, 94-188 (RRM) docked as homology model; source: endogenous, S. cerevisiae; co-purified in U1 snRNP through the TAP tag on U1A
T3 sequence (looked up): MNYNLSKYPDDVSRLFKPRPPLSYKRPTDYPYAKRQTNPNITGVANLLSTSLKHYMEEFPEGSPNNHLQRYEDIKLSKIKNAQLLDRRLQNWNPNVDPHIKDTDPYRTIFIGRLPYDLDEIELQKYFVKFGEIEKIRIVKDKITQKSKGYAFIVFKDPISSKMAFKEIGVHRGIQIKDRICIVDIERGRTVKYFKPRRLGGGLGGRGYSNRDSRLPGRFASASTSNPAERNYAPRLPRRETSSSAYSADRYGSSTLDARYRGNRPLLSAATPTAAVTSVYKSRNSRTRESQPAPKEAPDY
Described as above.

B1: yeast SmG (natural protein, S. cerevisiae, UniProt P40204 1-77, looked up)
chain: MVSTPELKKYMDKKILLNINGSRKVAGILRGYDIFLNVVLDDAMEINGEDPANNHQLGLQTVIRGNSIISLEALDAI
notes: SmG of S. cerevisiae, member of the Sm ring of U1 snRNP; source: endogenous, S. cerevisiae; co-purified in U1 snRNP through the TAP tag on U1A
Turning to B1, in the assay with yeast Prp42, the binding result was “binds”.
On to B2, for which the binding result with yeast Prp42 and with yeast Prp39 was “binds” throughout.

B3: yeast Prp40 (natural protein, S. cerevisiae, UniProt P33203 1-583, looked up)
chain: MSIWKEAKDASGRIYYYNTLTKKSTWEKPKELISQEELLLRENGWKAAKTADGKVYYYNPTTRETSWTIPAFEKKVEPIAEQKHDTVSHAQVNGNRIALTAGEKQEPGRTINEEESQYANNSKLLNVRRRTKEEAEKEFITMLKENQVDSTWSFSRIISELGTRDPRYWMVDDDPLWKKEMFEKYLSNRSADQLLKEHNETSKFKEAFQKMLQNNSHIKYYTRWPTAKRLIADEPIYKHSVVNEKTKRQTFQDYIDTLIDTQKESKKKLKTQALKELREYLNGIITTSSSETFITWQQLLNHYVFDKSKRYMANRHFKVLTHEDVLNEYLKIVNTIENDLQNKLNELRLRNYTRDRIARDNFKSLLREVPIKIKANTRWSDIYPHIKSDPRFLHMLGRNGSSCLDLFLDFVDEQRMYIFAQRSIAQQTLIDQNFEWNDADSDEITKQNIEKVLENDRKFDKVDKEDISLIVDGLIKQRNEKIQQKLQNERRILEQKKHYFWLLLQRTYTKTGKPKPSTWDLASKELGESLEYKALGDEDNIRRQIFEDFKPESSAPTAESATANLTLTASKKRHLTPAVELDY
notes: Prp40 of S. cerevisiae U1 snRNP; not modelled in the structure; source: endogenous, S. cerevisiae; co-purified in U1 snRNP through the TAP tag on U1A
Turning to B3, the binding result with yeast Snu71 is on record as “binds”.

B4: yeast Snu56 (natural protein, S. cerevisiae, UniProt Q03782 1-492, looked up)
chain: MRPRRRGLAYHHTKPKGQLSQGHYPTTSNDGQRRKVGNSEAFQSFDIWKNLDRIRSTKKNAGQFIKGSLLILPMRTEDKQQFDECMDELHKYISKDILRCYPQKEQKDEGMLFYIVLKDFNILDSCFVLSVLLAFQKRLWMAPSEKSYFRVPKNINLTGSFYLPKNIETGRGHIITSYRREQPSSSIVEVGFNVVPDFQQFQVKACHVSKFMNELSNFFSQVEFGKCEANVINYFKREYNRTYSQISLALYELPLIGDGLFDIKSYISKTRPIIETSKAQMIKHISEMKAYNEISGLQGDQFPRQQRPLSNSPSSNSISSSQTIEAGATSYQTQPQRHAVNKPSNVLNSSNRHSGPKTFEDGRYSEGNKPGFMTQDEIKQHCIGTIKASMDAVKKKSSYQILKTYVRCPRQNYIDIVYQNLNDLRSKTNCNIVVLNLNNLHESQMWLESLNTTNYTIFAQAPHPSTIRVISIGGVGEYIVKALELILNILEH
notes: Snu56 of S. cerevisiae, 492 residues; N-terminal domain 47-254 and long helix 255-303 modelled; source: endogenous, S. cerevisiae; co-purified in U1 snRNP through the TAP tag on U1A
Consider B4, for which the binding result with yeast Nam8, with yeast Prp42 and with yeast Snu71 was “binds” in each case.
For B5, the binding result with yeast Prp39 and with yeast Snu71 was “binds” throughout.

B6: yeast U1C (natural protein, S. cerevisiae, UniProt Q05900 1-231, looked up)
chain: MTRYYCEYCHSYLTHDTLSVRKSHLVGKNHLRITADYYRNKARDIINKHNHKRRHIGKRGRKERENSSQNETLKVTCLSNKEKRHIMHVKKMNQKELAQTSIDTLKLLYDGSPGYSKVFVDANRFDIGDLVKASKLPQRANEKSAHHSFKQTSRSRDETCESNPFPRLNNPKKLEPPKILSQWSNTIPKTSIFYSVDILQTTIKESKKRMHSDGIRKPSSANGYKRRRYGN
notes: U1C of S. cerevisiae U1 snRNP, 231 residues; NTD residues 1-48; residues 3-47 and 48-195 modelled; also called Yhc1; source: endogenous, S. cerevisiae; co-purified in U1 snRNP through the TAP tag on U1A
Turning to B6, the binding result in the assay with yeast Nam8, with yeast Prp42 and with yeast U1-70K was “binds” in each case.
